According to the nanobody polyreactivity screen of Harvey et al. (2022):

assay: yeast display, Sf9 membrane polyspecificity reagent, FACS + sequencing; frameworks hold sequencing errors
Procedure, shortened: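 Synthetic nanobody libraries on Saccharomyces cerevisiae BJ5465 were galactose-induced for 36–48 hours, stained 1 hour at 4 °C with 10% biotinylated, detergent-solubilized Sf9 membrane reagent and enriched on streptavidin microbeads. FACS then separated cells into low and high (top ~1%) gates by anti-HA (expression) and streptavidin (reagent binding) fluorescence. Genes were colony-PCR amplified, MiSeq 2 × 250 sequenced and CDR-length filtered. A clone's polyreactivity label is that of its gate of origin.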

Row | Sequence | polyreactivity (PSR sort gate)
1 | QVQLVESGGGLVQAGGSLRLSCAASGSIFYSNAKGWYRQAPGKERELVATITWSGGRTYYADSVKGRFTISRDNAKNTVYLQMNILKPEDTAVYYCAAVSIYWGQGTQVTVSS | low polyreactivity
2 | QVQLVESGGGLVQAGGSLRLSCAASGSIFYSNAMGWYRQAAGKERELVAAISVSGVSTYYADSVKGRFTISRDTAKNTVYLQMNSLKPEDTAVYYCAADTGYRYDDYYWWGGEYDYWGQGTQVTVSS | low polyreactivity
3 | QVQLVESGGGLVQAGGSLRLSCAASGSIFYSNAMGWYRQAPGKERELVAAINWRGGSTYYADSVKGRFTISRDYAKNTVYLQMNSLKPEDTAVYYCNADSYDEIKYGYWGQGTQVTVSS | low polyreactivity
4 | QVQLVESGGGLVQAGGSLRLSCAASGSIFYSNAMGWYRQAPGKERELVAAISVSGVTTYYADSVKGRFTISRDNAKNTVYLQMNSLKPEDTAVYYCAADTGYRYDDYYWWGGEYDYWGQGTQVTVSS | low polyreactivity
5 | QVQLVESGGGLVQAGGSLRLSCAASGSIFYSNAMGWYRQAPGKERELVAAITRRGGSTYYADSVKGRFTISRDNAKNTVYLQMNSLKPEDTAVYYCAARYYRRFAHYGEYGYWGQGTQVTVSS | high polyreactivity
6 | QVQLVESGGGLVQAGGSLRLSCAASGSIFYSNAMGWYRQAPGKERELVAAITRRGGSTYYADSVKGRFTISRDNAKNTVYLQMNSLKPEDTAVYYCNRDPDIYIGYDYWGQGTQVTVSS | high polyreactivity
7 | QVQLVESGGGLVQAGGSLRLSCAASGSIFYSNAMGWYRQAPGKERELVAAITWSGGSTYYADSVKGRFTISRDNAKNTVYLQMNSLKPEDTAVYYCNARRNVRQTFGYEYWGQGTQVTVSS | high polyreactivity
8 | QVQLVESGGGLVQAGGSLRLSCAASGSIFYSNAMGWYRQAPGKERELVARITWSGGSTYYADSVKGRFTISRDNAKNTVYLQMNSLKPEDTAVYYCNKVIFRYFTTRPTRTYEYWGQGTQVTVSS | low polyreactivity
9 | QVQLVESGGGLVQAGGSLRLSCAASGSIFYSNAMGWYRQAPGKERELVATIRSGGTTYYADSVKGRFTISRDNAKNTVYLQMNSLKPEDTAVYYCAKRYGVKYWGQGTQVTVSS | high polyreactivity
10 | QVQLVESGGGLVQAGGSLRLSCAASGSIFYSNVMGWYRQAPGKERELVAAISKNGGSTYYADSVKGRFTISRDNAKNTVYLQMNSLKPEDTAVYYCAKYGYVGTTYGYWGQGTQVTVSS | high polyreactivity
11 | QVQLVESGGGLVQAGGSLRLSCAASGSIFYSYAKGWYRQAPGKERELVAAISWDASTYFADSVKGRFTISRDNAKYSVYLQMNSLKPEDTAVYYCNADIPYYFVYDAYDYWGQGTQVTVSS | low polyreactivity
12 | QVQLVESGGGLVQAGGSLRLSCAASGSIFYSYAMGWSRQAPGKERELFAAISYSTTSTYYADSVKGRFTISCDNAKNTVYLQMKSLKPEDTAVYYCAVDYIIWYDGYLLYYWGQGTQVTVSS | low polyreactivity
13 | QVQLVESGGGLVQAGGSLRLSCAASGSIFYSYAMGWYRQAPGKERELVAAISYSSGSTYYADSVKGRFTISRDNAKNTVYLQMNSLKPEDTAVYYCAAEGNGWQVDVTEVGEYDSWGQGTQVTVSS | high polyreactivity
14 | QVQLVESGGGLVQAGGSLRLSCAASGSIFYSYAMGWYRQAPGKERELVARINYRGGSTYYADSVKGRFTISRDNAMNTVYLQMNSLKPEDTAVYYCAKRSYWSSNPRDYWGQGTQVTVSS | high polyreactivity
15 | QVQLVESGGGLVQAGGSLRLSCAASGSIFYTNVMGWYRQAPGKERELVAAISSSGDRTYYADSVKGRFTISRDNAKNTVYLQMNSLKPEDTAVYYCAAQSYRSRYYYWGQGTQVTVSS | high polyreactivity
16 | QVQLVESGGGLVQAGGSLRLSCAASGSIFYTYAMGWYRQAPGKERELVAAISRSGGSTYYADSVKGRFTISRDNAKNTVYLQMNSLKPEDTAVYYCAAVSYRGRGYWGQGTQVTVSS | high polyreactivity
17 | QVQLVESGGGLVQAGGSLRLSCAASGSIFYTYTMGWYRQAPGKERELVAAISTRGGSTYYADSVKGRFTISRDNAKNTFYLQMNSLKPEDTAVYYCAAGLQRYRMYYWGQGTQVTVSS | high polyreactivity
18 | QVQLVESGGGLVQAGGSLRLSCAASGSIFYVNAMGWYRQAPGTERELVAAISWRSGRTYYADSVKGRFTISRDHAKNTVYLQMHSLKPEDTAVYYCAARVRRGSTQAQYYYWGQGTQVTVSS | high polyreactivity
19 | QVQLVESGGGLVQAGGSLRLSCAASGSIFYVNVMGWYRQAPGKERELVATISSGDTNYADSVKGRFTISRDNAKNTVYLQMNSLKPEDTAVYYCARRRTIPYTLVDYDSWGQGTQVTVSS | low polyreactivity
20 | QVQLVESGGGLVQAGGSLRLSCAASGSIFYVYAMGWYRQAPGKERELVAAIRRSGTSTYYADSVKGRFTISRDNAKNTVYLQMNSLKPEDSAVYYCAARYEVRHTLYNYWGQGTQVTVSS | high polyreactivity

Row | Sequence | polyreactivity (PSR sort gate)
21 | QVQLVESGGGLVQAGGSLRLSCAASGSIFYWYAMGWYRQAPGKERELVAGITGRGGSTYYADSVKGRFTISRDNAKNTVYLQMNSLKPEDSAVYYADFVKYGKYYQRYDYWAQGTQVTVSS | high polyreactivity
22 | QVQLVESGGGLVQAGGSLRLSCAASGSIFYWYAMGWYRQAPGKERELVATNRYRGGNTYYADSVKGRFTISRDNAMNTVYLQMNSLKAEDTAVYYADFVKFCKYYQRYDYWGQGTQVTVSS | high polyreactivity
23 | QVQLVESGGGLVQAGGSLRLSCAASGSIFYWYAMGWYSQAPGKERELVAAIDISDDTYYADSVKGRFTISRDNAKNTVYLQMNSLKPEDTAGYYCAARTTRWFYEYDWGQGSQVTVSS | high polyreactivity
24 | QVQLVESGGGLVQAGGSLRLSCAASGSIFYYKYSMGWYRQAPGKERELVAAITSTGGTTYYADSVKGRFTISRDNAKNTVYLQMNSLKPEDTAVYYCAALAPYIGGVDYDYWGQGTQVTVSS | low polyreactivity
25 | QVQLVESGGGLVQAGGSLRLSCAASGSIFYYNAMGWYRPAPGKERELVAAITWSGGTYYADSVKGRFTISRDNAKNTVYLQMNSLKPEDTAVYYCNGARLYKWSFTPKFEMDHWGQGTQVTVSS | low polyreactivity
26 | QVQLVESGGGLVQAGGSLRLSCAASGSIFYYNAMGWYRQAPGKERELDANISWNGASTYYADSVKGRFTISRDNAKNSVYLQMLSLKPEDTAVYYCATAGKGDPPWLPSEVTDYYYWGQGTQVTVSL | low polyreactivity
27 | QVQLVESGGGLVQAGGSLRLSCAASGSIFYYNAMGWYRQAPGKERELVAAITSSGGSTYADSVKGRFSISRDNAKNTVYLQMKSLKPEDTAVYYCNADGGYSYESTDHYGYEYWGQGTQVTVSS | low polyreactivity
28 | QVQLVESGGGLVQAGGSLRLSCAASGSIFYYNAMGWYRQAPGKERELVATITSGGSTYYADSVKGRFTISRDNAKNTVYLQMNSLKPEDTAVYYCAPRSQSIRYTYIRSYYWGQGTQVTVSS | low polyreactivity
29 | QVQLVESGGGLVQAGGSLRLSCAASGSIFYYNAMGWYSQAPGKERELVAAITGSGGSTYYADSVKGRFTISRDNAKNTVYLQMNSLKPEDTAVYYCAADYSLYGWWFRNDYWGQGTQVTVSS | low polyreactivity
30 | QVQLVESGGGLVQAGGSLRLSCAASGSIFYYNDRGWSRQAPGKDRELVATIRSGGNTNYADSVKGRFTISRDIAKNTVYLQMNSLKPEDSAVYYCTARGAYHGYRYDSWGQGTQVTVSS | low polyreactivity
31 | QVQLVESGGGLVQAGGSLRLSCAASGSIFYYNTMGWYRQAPGKERELVAAIRSSSGRTYYADSVKGRFTISRDNAKNTVYLQMNSLKPEDTAVYYCATVHSYTIQRYDYWGQGTQVTVSS | high polyreactivity
32 | QVQLVESGGGLVQAGGSLRLSCAASGSIFYYYAMGWSRQAPGKEREFVAAIRESGGSTYYADSVKGSFTISRDNAKNTVYLQMNSLKAEDTAVYYCAVRRPRRNYNYPYDYWGQGTQVTVSS | low polyreactivity
33 | QVQLVESGGGLVQAGGSLRLSCAASGSIFYYYAMGWYRQAPGKERELVAAIDASGGSTYYADSVKGRFTISRDNAKNTVYLQMNSLKPEDTAVYYCATRSPRLSRHRRYYSWGQGTQVTVSS | high polyreactivity
34 | QVQLVESGGGLVQAGGSLRLSCAASGSIFYYYAMGWYRQAPGKERELVAAISSGGVRTYYADSVKGRFTISRDNAKNTVYLQMKSLKPEDTAVYYCAKDVHSGVTLIHERYYWGQGTQVTVSS | low polyreactivity
35 | QVQLVESGGGLVQAGGSLRLSCAASGSIFYYYAMGWYRQAPGKERELVAAISYGGGSTYYADSVKGRFTISRDNAKNTVYLQMNSLKPEDTAVYYCAVQEVVGWYLYDYWGQGTQVTVSS | high polyreactivity
36 | QVQLVESGGGLVQAGGSLRLSCAASGSIFYYYAMGWYRQAPGKERELVASISTDGSTYADSVKGRFTISRDNAKNTVYLQMNSLKPEDTAVYYCNADTRGEYTYVSWYDYWGQGTQVTVSS | low polyreactivity
37 | QVQLVESGGGLVQAGGSLRLSCAASGSIFYYYTMGWYRAAPGKERELVAGISRSGDRTYYADSVKGRFTISRDNAKNTVYLQMNSLKPEVTAVYYCATRWSSARMDYWGQGTQVTVSS | high polyreactivity
38 | QVQLVESGGGLVQAGGSLRLSCAASGSIFYYYTMGWYRPAPGKERELVASITGGGSTYYADSVKGRFTISRDNAKNTVYLQMNSLKPDDTAVYYCAAYRYGVTNAYGYWGQGTQVTVSS | high polyreactivity
39 | QVQLVESGGGLVQAGGSLRLSCAASGSIIAINAMGWYRQAPGKERDLVAAISWNTGTTYYADSVKGRFTISRDNAKNTVYLQMNSLKPEDTAVYYCAADLWRWESLYKIWLPQYDYWGQGTQVTVSS | high polyreactivity
40 | QVQLVESGGGLVQAGGSLRLSCAASGSIIAYYGMGWYRQAPGKESELVAAITSDASTYYADSVKWRFTISRDNAKKTDYLQMNSLKPVDTAVYYCYAYSYYYVYGYDMGYWGQGTQVTVSS | low polyreactivity
